Test results from patent publication US20230087570A1 (NATIONAL CANCER CENTER, published 2023).

Target: T1, mouse TIM-3 expressed on cells (mouse, UniProt Q8VIM0 20-281)
T1 construct: whole, on cells; also called mTIM-3
Test: flow cytometry on mouse primary glial cells (FIG. 7 legend)
Procedure: FACS analysis was performed to determine whether the selected antibody, hTIM-3_NCC1, specifically binds to mouse TIM-3 as well as human TIM-3.
Specifically, 0.5 μg of hTIM-3_NCC1 antibody was reacted to mouse primary glial cells for 30 minutes, and then stained with a secondary antibody (APC-human IgG Fc; Biolegend, cat #409305). In addition, mouse CD11b⁺ cells overexpressing mouse TIM-3 (3×10⁵ cells) were separated using a-BV421-conjugated anti-CD11b antibody (BD, cat #562605) and then 0.5 μg of hTIM-3_NCC1 antibody and PE-conjugated anti-mouse were reacted for 30 minutes. These cells were surface-stained with a secondary antibody (APC-Human IgG Fc) and then measured by flow cytometry.

T1 sequence (Q8VIM0 20-281): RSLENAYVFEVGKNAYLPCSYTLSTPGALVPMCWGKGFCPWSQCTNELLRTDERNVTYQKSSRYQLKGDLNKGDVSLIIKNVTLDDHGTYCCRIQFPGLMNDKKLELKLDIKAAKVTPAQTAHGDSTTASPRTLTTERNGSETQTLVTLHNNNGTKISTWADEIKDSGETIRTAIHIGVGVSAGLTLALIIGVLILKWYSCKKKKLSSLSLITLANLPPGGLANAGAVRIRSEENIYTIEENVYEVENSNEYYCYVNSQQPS

B1: hTIM-3_NCC1 (Fc fusion)
scFv: EVQLVESGGGLVQPGGSLRLSCAASGSIFSNGYMTWYRQAPGKGLELVSSINSRGVTNYADSVKGRFTISRDNSKNTLYLQMNSLRAEDTAVYYCAALLPHEIRKYWGQGTQVTVSSGGGSHGGGSGGGSVDDIQMTQSPDSLAVSLGERATINCKSSQSVFYNSNNKNYLGWYQKKPGQPPKLLIFWASTRESGVPDRFSGSGSGTDFTLTISSLQAEDVAVYYCQQYYSTPRTLGGGTKVDIKR
notes: Human scFv from a naive phage library, tested as scFv-hIgG (hIgG1) and detected with anti-human IgG secondary antibodies; also called scFv-TIM3 #4; ScFV-TIM3 #4; not shown: human IgG1 part (named only as 'hscFv-hIgG1')
- binding result: binds
